System: K4 kissing-loop RNA reporter
Test: apparent KD of K4 kissing-loop reporter; higher = weaker reporter binding
Details: Eterna round: R107
Description: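 RNA-MaP round R107: designed RNA switches with theophylline, tryptophan, arginine or FMN aptamers are transcribed on-chip within common flanks. They are titrated with a labelled K4 kissing-loop RNA reporter in RNA-MaP buffer (100 mM Tris pH 7.5, 80 mM KCl, 4 mM MgCl2), without ligand or with the indicated ligand. Median apparent KD per design.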

[1] = input ligand: theophylline 20 uM
[2] = input ligand: tryptophan 2.4 mM
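Further: bound reporter read as fluorescence of individual clusters on recovered sequencing chips by microscopy, with normalized cluster intensities fitted with a binding model.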

Sequence	apparent KD of K4 kissing-loop reporter (input ligand: FMN 200 uM)	apparent KD of K4 kissing-loop reporter (input ligand: arginine 13.2 mM)	apparent KD of K4 kissing-loop reporter (input ligand: none)	apparent KD of K4 kissing-loop reporter [1]	apparent KD of K4 kissing-loop reporter [2]
AGGUGAGACUGAAGGAGCGAUCGCGCCAGUGAUGUUGGUGAGCAUGACAAAGUCAUGCACGAUCAGGUAGGUCGCAGUCUUACUC [Omei KL Arginine B SS B v2]	199 nM	156 nM	206 nM	188 nM	185 nM
AGGUUUUGAUUAGGAUAUGCACUGAGGAGGAGAAUAUAGUGAUGUUAUAUAAGAGGAAGGAGAAGAGUAGAAGGGAUUGAGGUUU [SSFMNB.Q]	156 nM	285 nM	191 nM	197 nM	190 nM
AGUAAUCUCACGGCCGCCACUGUUUAUUGUUUUUAUAGUUAUAAAUCUUGCCAGUGAUGUUGGUACAGGACCGGGUGAGUUAAUA [#25 K4 Tryptophan B Same State]	357 nM	360 nM	402 nM	353 nM	316 nM
AGUACGGCAAACUUGCAACAAGCCGUACCACGAGGACCGGUACGGCCGCCACUCGAUAACUUGCAGUGAUGUUGCAAGUAAGAAU [(T)''-(K)'-(T)'-(T1)-(T2)-(K1)-(K2)_Design5]	161 nM	140 nM	169 nM	226 nM	209 nM
AGUAGGAAACUACAAUCCUCUCUUACUGAAGGAGCGCGUGAAAACGCAGGUAGGUCGCAGGAUUUGAGAGUGAUGUUCUCAUUAA [Ex Arginine A K4 16]	201 nM	294 nM	231 nM	277 nM	174 nM
AGUAGUUGGACGGCCGCCACUAGAACAGCUUUGCCAAAGGCAGAGCACUAGAGUGAUGUUCUAGCUAGGACCGGGUCCAACUACA [Omei KL Tryp B SS A v1]	902 nM	306 nM	54.2 nM	118 nM	1000 nM
AGUAUUGAGUCGGCCGCCACUGGUUUAAUGAGUGUCAAUUCUGGAUCAAAGUGAUGUUUUGGAGCUAGGACCGGGACCAUUGUUA [#07 K4 Tryptophan B Exclusion]	446 nM	360 nM	433 nM	360 nM	479 nM
AGUCCACUCUAAAGAGUGGACCUAAGGGAUACCAGUGAUGUUGGUCACCCUUGGCAGCCCACUGUCAUCGAUAAAGAUGGCAGGA	128 nM	112 nM	116 nM	119 nM	117 nM
AGUCCACUCUAAAGAGUGGACCUAAGGGAUACCAGUGAUGUUGGUCACCCUUGGCAGCCCUCUGUCAUCGAUAAAGAUGGCAGGA	128 nM	114 nM	113 nM	137 nM	119 nM
AGUCGAGAUUAUAGACUCGACAGGUCAGAAGGAGCGACGAAUUCGUCAGGUAGGUCGCUGACAUAGCAGUGAUGUUGCUAUACGG [Arg A SS t1]	149 nM	132 nM	150 nM	163 nM	126 nM
AGUCGCAGUGAUGUUGCGAUUCCGUUGAGGGAGGAUAUUGGUAAUACAAGAAGGCCCGGCUACGGGAGAUGUUAGCAAUAGGGCC [Exclusion FMN A GF20]	92 nM	94.5 nM	63 nM	65 nM	63.9 nM
AGUGAUAUAUGAGGAUAUGGGUUAAUUAGUGAGUGAUUUUUAGUGUUGUUUGAUUAGUGAUGUUAUUUAGAAGGCGUGAGUGAUG [mvvmjmullin]	123 nM	106 nM	81.9 nM	144 nM	79.4 nM
AGUGAUAUAUGAGGAUAUGGGUUGGUUAAUGAGUUAGUUUUAGUGUUGUUUGGUUAGUGAUGUUAUUUAGAAGGCGUGAGUGAUG [sffdsmullin]	99.6 nM	88.3 nM	81.8 nM	95.8 nM	71.8 nM
AGUGAUGUGGGAAGGAGCGCUAGUACACUUCAGUGAUGUUGAAGUGAUGAAUUAGUGUAUUGGCAGGUAGGUCGCCUAGAUGUUA [KL-XARG-B14]	97.4 nM	59.1 nM	82.9 nM	65.4 nM	72.5 nM
AGUGAUGUGGGAAGGAGCGGUAGAUGAGUUCAGUGAUGUUGAAGUGAUGCUGUAGUGAUGUGCCAGGUAGGUCGCCUAGAUGUUA [KL-XARG B24]	353 nM	162 nM	258 nM	130 nM	207 nM
AGUGAUGUGGGAAGGAGCGGUAUAAGAAUUCAGUGAUGUUGAAGUGUUGCAGAAAUAAAAGGCCAGGUAGGUCGCCUAGAUGUUA [KL-XARG B29]	347 nM	384 nM	454 nM	519 nM	243 nM

Source: the supplement of paper PMC9170038
